Measured values: article PMC7352350, “Molecular Interactions Stabilizing the Promatrix Metalloprotease-9·Serglycin Heteromer” (International Journal of Molecular Sciences, 2020)

T1: recombinant human His-tagged serglycin (human, UniProt P10124 28-158)
T1 construct: serglycin core protein, human, the tag stands instead of the signal peptide; no GAG chains; numbers count on: the mature protein (1-131); also called Ht-SG; SG core protein; source: bought: ProSpec (produced in Escherichia coli)
T1 sequence (looked up): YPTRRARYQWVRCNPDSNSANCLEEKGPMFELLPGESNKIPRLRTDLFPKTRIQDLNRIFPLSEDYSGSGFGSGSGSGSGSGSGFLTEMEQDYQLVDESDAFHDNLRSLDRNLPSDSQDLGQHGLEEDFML

B1: SG peptide 27 (peptide, UniProt P10124 80-99, looked up)
peptide: IQDLNRIFPLSEDYSGSGFG
notes: serglycin core protein, spot 27 of the 20-mer walk with two-residue shift; numbers count on: the mature protein (1-131); source: synthetic peptide on a cellulose membrane
B2: SG peptide 54 (peptide, UniProt P10124 134-153, looked up)
peptide: RSLDRNLPSDSQDLGQHGLE
notes: serglycin core protein, spot 54 of the 20-mer walk with two-residue shift; numbers count on: the mature protein (1-131); source: synthetic peptide on a cellulose membrane
B3: FnII peptide 14 (peptide, UniProt P14780 251-270, looked up)
peptide: DGLPWCSTTANYDTDDRFGF
notes: MMP-9 FnII module (A225-D390), spot 14 of the 20-mer walk with two-residue shift; source: synthetic peptide on a cellulose membrane
B4: SG peptide 53 (peptide, UniProt P10124 132-151, looked up)
peptide: NLRSLDRNLPSDSQDLGQHG
notes: serglycin core protein, spot 53 of the 20-mer walk with two-residue shift; numbers count on: the mature protein (1-131); source: synthetic peptide on a cellulose membrane
B5: HPX peptide 84 (peptide, UniProt P14780 687-706, looked up)
peptide: ELNQVDQVGYVTYDILQCPE
notes: MMP-9 HPX domain (F521-D707), spot 84 of the 20-mer walk with two-residue shift; source: synthetic peptide on a cellulose membrane
B6: HPX peptide 69 with F673 mutated (peptide, UniProt P14780 657-676, looked up)
peptide: VPLDTHDVFQYREKAYGCQD
notes: MMP-9 HPX domain, mutated 20-mer of spot 69; source: synthetic peptide on a cellulose membrane
B7: HPX peptide 38 (peptide, UniProt P14780 595-614, looked up)
peptide: VLGPRRLDKLGLGADVAQVT
notes: MMP-9 HPX domain (F521-D707), spot 38 of the 20-mer walk with two-residue shift; source: synthetic peptide on a cellulose membrane
B8: SG peptide 6 (peptide, UniProt P10124 38-57, looked up)
peptide: VRCNPDSNSANCLEEKGPMF
notes: serglycin core protein, spot 6 of the 20-mer walk with two-residue shift; numbers count on: the mature protein (1-131); source: synthetic peptide on a cellulose membrane
B9: SG peptide 47 (peptide, UniProt P10124 120-139, looked up)
peptide: YQLVDESDAFHDNLRSLDRN
notes: serglycin core protein, spot 47 of the 20-mer walk with two-residue shift; numbers count on: the mature protein (1-131); source: synthetic peptide on a cellulose membrane
B10: HPX peptide 19 (peptide, UniProt P14780 557-576, looked up)
peptide: ADKWPALPRKLDSVFEERLS
notes: MMP-9 HPX domain (F521-D707), spot 19 of the 20-mer walk with two-residue shift; source: synthetic peptide on a cellulose membrane
B11: SG peptide 48 (peptide, UniProt P10124 122-141, looked up)
peptide: LVDESDAFHDNLRSLDRNLP
notes: serglycin core protein, spot 48 of the 20-mer walk with two-residue shift; numbers count on: the mature protein (1-131); source: synthetic peptide on a cellulose membrane
B12: HPX peptide 11 (peptide, UniProt P14780 541-560, looked up)
peptide: RFSEGRGSRPQGPFLIADKW
notes: MMP-9 HPX domain (F521-D707), spot 11 of the 20-mer walk with two-residue shift; source: synthetic peptide on a cellulose membrane
B13: HPX peptide 37 (peptide, UniProt P14780 593-612, looked up)
peptide: ASVLGPRRLDKLGLGADVAQ
notes: MMP-9 HPX domain (F521-D707), spot 37 of the 20-mer walk with two-residue shift; source: synthetic peptide on a cellulose membrane
B14: FnII peptide 65 (peptide, UniProt P14780 353-372, looked up)
peptide: FLGKEYSTCTSEGRGDGRLW
notes: MMP-9 FnII module (A225-D390), spot 65 of the 20-mer walk with two-residue shift; source: synthetic peptide on a cellulose membrane
B15: HPX peptide 56 (peptide, UniProt P14780 631-650, looked up)
peptide: RLWRFDVKAQMVDPRSASEV
notes: MMP-9 HPX domain (F521-D707), spot 56 of the 20-mer walk with two-residue shift; source: synthetic peptide on a cellulose membrane
B16: HPX peptide 70 (peptide, UniProt P14780 659-678, looked up)
peptide: LDTHDVFQYREKAYFCQDRF
notes: MMP-9 HPX domain (F521-D707), spot 70 of the 20-mer walk with two-residue shift; source: synthetic peptide on a cellulose membrane
B17: HPX peptide 76 (peptide, UniProt P14780 671-690, looked up)
peptide: AYFCQDRFYWRVSSRSELNQ
notes: MMP-9 HPX domain (F521-D707), spot 76 of the 20-mer walk with two-residue shift; source: synthetic peptide on a cellulose membrane
B18: FnII peptide 64 (peptide, UniProt P14780 351-370, looked up)
peptide: FTFLGKEYSTCTSEGRGDGR
notes: MMP-9 FnII module (A225-D390), spot 64 of the 20-mer walk with two-residue shift; source: synthetic peptide on a cellulose membrane
B19: FnII peptide 16 (peptide, UniProt P14780 255-274, looked up)
peptide: WCSTTANYDTDDRFGFCPSE
notes: MMP-9 FnII module (A225-D390), spot 16 of the 20-mer walk with two-residue shift; source: synthetic peptide on a cellulose membrane
B20: FnII peptide 35 (peptide, UniProt P14780 293-312, looked up)
peptide: IFQGQSYSACTTDGRSDGYR
notes: MMP-9 FnII module (A225-D390), spot 35 of the 20-mer walk with two-residue shift; source: synthetic peptide on a cellulose membrane
B21: SG peptide 22 (peptide, UniProt P10124 70-89, looked up)
peptide: LRTDLFPKTRIQDLNRIFPL
notes: serglycin core protein, spot 22 of the 20-mer walk with two-residue shift; numbers count on: the mature protein (1-131); source: synthetic peptide on a cellulose membrane
B22: SG peptide 15 (peptide, UniProt P10124 56-75, looked up)
peptide: MFELLPGESNKIPRLRTDLF
notes: serglycin core protein, spot 15 of the 20-mer walk with two-residue shift; numbers count on: the mature protein (1-131); source: synthetic peptide on a cellulose membrane
B23: SG peptide 14 (peptide, UniProt P10124 54-73, looked up)
peptide: GPMFELLPGESNKIPRLRTD
notes: serglycin core protein, spot 14 of the 20-mer walk with two-residue shift; numbers count on: the mature protein (1-131); source: synthetic peptide on a cellulose membrane
B24: SG peptide 25 (peptide, UniProt P10124 76-95, looked up)
peptide: PKTRIQDLNRIFPLSEDYSG
notes: serglycin core protein, spot 25 of the 20-mer walk with two-residue shift; numbers count on: the mature protein (1-131); source: synthetic peptide on a cellulose membrane

Key:
Details in all cases: both partners purified
[1] = target: T2, recombinant full-length proMMP-9 (human, UniProt P14780 20-707); test: peptide or protein array; 20-mer walk of the SG core protein on cellulose, two-residue shift; 8.8 ul of 11.2 ug/mL proMMP-9 in 10 mL blocking buffer, 1-4 h, room temperature; antibody against MMP-9
T2 construct: matrix metalloprotease-9 proenzyme, human, full-length; pre domain cleaved off, the mature proenzyme is 20-707; also called rpMMP-9; source: Sf9, baculovirus, purified (gelatin-Sepharose)

[2] = target: T3, recombinant proMMP-9 lacking the HPX domain (human, UniProt P14780 20-515); test: as above
T3 construct: MMP-9 proenzyme, human; stop codon behind the codon for A515; the mature proenzyme starts at 20; also called rpMMP-9ΔHPX; proMMP-9ΔHPX; source: Sf9, baculovirus, purified (gelatin-Sepharose)
T3 sequence (P14780 20-515): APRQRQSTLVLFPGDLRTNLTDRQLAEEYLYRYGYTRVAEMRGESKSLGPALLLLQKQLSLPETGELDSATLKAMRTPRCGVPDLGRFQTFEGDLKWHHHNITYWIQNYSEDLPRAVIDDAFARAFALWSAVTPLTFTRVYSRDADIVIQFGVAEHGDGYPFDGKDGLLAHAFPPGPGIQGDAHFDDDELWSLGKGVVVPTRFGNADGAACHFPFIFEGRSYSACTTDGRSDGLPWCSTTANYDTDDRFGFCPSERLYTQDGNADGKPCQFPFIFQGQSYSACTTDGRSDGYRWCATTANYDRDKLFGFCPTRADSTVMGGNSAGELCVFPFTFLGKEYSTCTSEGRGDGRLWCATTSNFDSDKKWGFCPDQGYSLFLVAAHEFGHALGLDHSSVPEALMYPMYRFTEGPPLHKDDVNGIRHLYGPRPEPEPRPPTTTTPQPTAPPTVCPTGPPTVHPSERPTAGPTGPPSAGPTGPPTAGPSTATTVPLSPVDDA

[3] = target: T4, proMMP-9 purified from THP-1 cells (human (endogenous in THP-1), UniProt P14780 20-707); test: as above
T4 construct: matrix metalloprotease-9 proenzyme, human; pre domain cleaved off, the mature proenzyme is 20-707; the preparation holds a small amount of TIMP-1; monomer and reduction-sensitive homomultimer; also called pMMP-9; promatrix metalloprotease-9; source: purified from conditioned medium of PMA-stimulated THP-1 cells (Q-Sepharose pass-through, gelatin-Sepharose)
T4 sequence (P14780 20-707): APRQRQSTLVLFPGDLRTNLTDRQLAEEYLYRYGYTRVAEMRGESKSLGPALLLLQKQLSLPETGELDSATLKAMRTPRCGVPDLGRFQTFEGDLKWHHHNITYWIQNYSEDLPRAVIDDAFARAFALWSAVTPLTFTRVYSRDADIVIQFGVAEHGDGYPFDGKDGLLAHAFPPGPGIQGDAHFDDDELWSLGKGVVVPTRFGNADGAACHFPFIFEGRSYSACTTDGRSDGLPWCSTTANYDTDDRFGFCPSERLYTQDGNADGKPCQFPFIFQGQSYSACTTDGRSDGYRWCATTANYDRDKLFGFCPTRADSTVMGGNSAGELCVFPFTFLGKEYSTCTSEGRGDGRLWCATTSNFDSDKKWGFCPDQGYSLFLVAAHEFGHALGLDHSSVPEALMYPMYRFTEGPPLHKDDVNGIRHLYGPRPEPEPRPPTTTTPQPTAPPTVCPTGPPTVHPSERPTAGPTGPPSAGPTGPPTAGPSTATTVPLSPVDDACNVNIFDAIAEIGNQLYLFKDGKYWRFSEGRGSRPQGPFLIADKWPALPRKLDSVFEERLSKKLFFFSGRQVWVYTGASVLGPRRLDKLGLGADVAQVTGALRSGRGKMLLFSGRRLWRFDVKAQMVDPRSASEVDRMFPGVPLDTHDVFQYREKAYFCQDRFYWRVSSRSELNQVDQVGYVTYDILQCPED

[4] = target: T4, proMMP-9 purified from THP-1 cells; test: as above; remark: listed apart in the source
[5] = target: T1, recombinant human His-tagged serglycin; test: peptide or protein array; 20-mer walks of the MMP-9 FnII module and HPX domain on cellulose, two-residue shift; 10 uL of 1 ng/uL Ht-SG in 10 mL blocking buffer, 1-4 h, room temperature; antibodies against SG
[6] = target: T1, recombinant human His-tagged serglycin; test: peptide or protein array; mutated FnII and HPX 20-mer peptides on cellulose, incubated with Ht-SG; antibodies against SG

Binder | binding result [1] | binding result [2] | binding result [3] | binding result [5] | further results
B1 | binds | binds | binds | – | –
B2 | – | – | – | – | binding result [4]: binds
B3 | – | – | – | binds | –
B4 | – | – | – | – | binding result [4]: binds
B5 | – | – | – | binds | –
B6 | – | – | – | – | binding result [6]: binds
B7 | – | – | – | binds | –
B8 | binds | binds | binds | – | –
B9 | binds | binds | binds | – | –
B10 | – | – | – | binds | –
B11 | binds | binds | binds | – | –
B12 | – | – | – | binds | –
B13 | – | – | – | binds | –
B14 | – | – | – | binds | –
B15 | – | – | – | binds | –
B16 | – | – | – | binds | –
B17 | – | – | – | binds | –
B18 | – | – | – | binds | –
B19 | – | – | – | binds | –
B20 | – | – | – | binds | –
B21 | binds | binds | binds | – | –
B22 | binds | binds | binds | – | –
B23 | binds | binds | binds | – | –
B24 | binds | binds | binds | – | –
